Results as given in patent US20250136910A1, “DEVICES FOR USE AS BLOOD BRAIN BARRIER MODELS” (Merck Sharp & Dohme LLC, priority 2023, published 2025).

Key:
[1] = test system: GFP HUVECs; test: Ang-1 addition to perfusion media, channels endothelialized with GFP HUVECs; type: cell-based, human; conditions: complete Vasculife (with VEGF) 3 days, then Ang-1 added 15 ng mL^−1; perfused at 5 μL min^−1
Method: FIGS. 25a-25c show immunostained VE-Cadherin junctions for channels endothelialized with GFP HUVECs (30M mL^−1) after being exposed to different media compositions. […] This gel was sustained for a total of twelve days while being perfused at 5 μL min^−1.
For the HUVECs, a mature monolayer was able to be obtained through modulation of the media composition and utilizing biomolecules that play an important role in endothelial cell function. In addition to the removal of VEGF, another avenue explored was the addition of Angiopoetin-1 (Ang-1). Angiopoetin-1 is a glycoprotein that is a known ligand for the endothelial cell-specific receptor tyrosine kinase, Tie-2 receptor. In vascular development during embryogenesis, VEGF and Ang-1 play essential and complementary roles. Vascular endothelial growth factor (VEGF) is responsible for the initial formation of the vascular plexus, while Angiopoetin-1 (Ang-1) is responsible for the subsequent remodeling of the vasculature into a network of mature vessels. […] The incorporation of this glycoprotein was first assessed using hydrogels endothelialized with GFP HUVECs. Three different media strategies were employed to assess the effect of adding Ang-1 to the perfusion media. […]

[2] = test system: GFP HBMECs; test: Ang-1 addition to perfusion media, serpentine gel endothelialized with GFP HBMECs; type: cell-based, human; conditions: complete Vasculife 3 days, then Ang-1 at 15 ng/ml for 3 days; perfused at 5 μL min^−1; day 6
Method: GFP HBMECs was seeded in the vascular channel at 30M mL^−1and perfused at 5 μL min^−1for duration of the study. […] Overlay and individual channels of GFP HBMEC and VE-Cadherin shown.
Once this was confirmed using HUVECs, the incorporation of Ang-1 to the perfusion media was tested on a gel endothelialized with GFP HBMECs. The same strategy was employed where the gel was perfused for 3 days with complete Vasculife media, then switched to a Vasculife media where Ang-1 was added in at 15 ng/ml for the remaining three days of perfusion culture. Images of cell morphology in the serpentine on days 3, 6, and after fixing and immunostaining for VE-Cadherin are seen in FIG. 26a. […] A magnified portion of the center channel is shown in FIG. 26b, which highlights the morphology of the GFP HBMECs and VE-Cadherin and includes nuclei in the overlay.

B1: Ang-1: glycoprotein that is a known ligand for the endothelial cell-specific receptor tyrosine kinase, Tie-2 receptor (protein, UniProt Q15389 16-498, looked up)
Angiopoietin-1: HIGCSNQRRSPENSGRRYNRIQHGQCAYTFILPEHDGNCRESTTDQYNTNALQRDAPHVEPDFSSQKLQHLEHVMENYTQWLQKLENYIVENMKSEMAQIQQNAVQNHTATMLEIGTSLLSQTAEQTRKLTDVETQVLNQTSRLEIQLLENSLSTYKLEKQLLQQTNEILKIHEKNSLLEHKILEMEGKHKEELDTLKEEKENLQGLVTRQTYIIQELEKQLNRATTNNSVLQKQQLELMDTVHNLVNLCTKEGVLLKGGKREEEKPFRDCADVYQAGFNKSGIYTIYINNMPEPKKVFCNMDVNGGGWTVIQHREDGSLDFQRGWKEYKMGFGNPSGEYWLGNEFIFAITSQRQYMLRIELMDWEGNRAYSQYDRFHIGNEKQNYRLYLKGHTGTAGKQSSLILHGADFSTKDADNDNCMCKCALMLTGGWWFDACGPSNLNGMFYTAGQNHGKLNGIKWHYFKGPSYSLRSTTMMIRPLDF
endothelial monolayer retention in perfusion culture [1]: retained an endothelial monolayer for twelve days of perfusion culture | endothelium confluence by VE-Cadherin immunostaining [2]: a confluent endothelium of brain microvascular endothelial cells lining the serpentine channel has been achieved
